Experiments:
Assay in all cases: ITC
Settings in all cases: both partners purified
human hisTRIM7-PRYSPRY = target: T1, human hisTRIM7-PRYSPRY (human, UniProt Q9C029 342-511)
T1 construct: vector pOPTH; also called hTRIM7-PRYSPRY; hTRIM7

hisMBP-TRIM7-CC-PRYSPRY = hisMBP-TRIM7-CC-PRYSPRY (human, UniProt Q9C029 165-511)
mouse TRIM7-PRYSPRY = target: T2, mouse TRIM7-PRYSPRY (mouse, UniProt Q923T7 342-510)
T2 construct: vector pOPTH; also called mTRIM7; mTrim7-PRYPSRY

| Binder | binding result (mouse TRIM7-PRYSPRY) | further results |
| --- | --- | --- |
| AAAAALQ |  | Kd (human hisTRIM7-PRYSPRY): 8 µM |
| hexahistidine-tagged full-length human GYG1, GN1 isoform (natural protein, also called hsGYG1-GN1; hGYG1-GN1) MTDQAFVTLTTNDAYAKGALVLGSSLKQHRTTRRLVVLATPQVSDSMRKVLETVFDEVIMVDVLDSGDSAHLTLMKRPELGVTLTKLHCWSLTQYSKCVFMDADTLVLANIDDLFDREELSAAPDPGWPDCFNSGVFVYQPSVETYNQLLHLASEQGSFDGGDQGILNTFFSSWATTDIRKHLPFIYNLSSISIYSYLPAFKVFGASAKVVHFLGRVKPWNYTYDPKTKSVKSEAHDPNMTHPEFLILWWNIFTTNVLPLLQQFGLVKDTCSYVNVEDVSGAISHLSLGEIPAMAQPFVSSEERKERWEQGQADYMGADSFDNIKRKLDTYLQ |  | stoichiometry N (hisMBP-TRIM7-CC-PRYSPRY): 1 |
| mouse glycogenin-1, full length (natural protein, also called mGYG1; mGYG) MTDQAFVTLTTNDAYAKGALVLGSSLKQHRTTRRMVVLTSPQVSDSMRKVLETVFDDVIMVDVLDSGDSAHLTLMKRPELGITLTKLHCWSLTQYSKCVFMDADTLVLSNIDDLFEREELSAAPDPGWPDCFNSGVFVYQPSIETYNQLLHLASEQGSFDGGDQGLLNTYFSGWATTDITKHLPFVYNLSSISIYSYLPAFKAFGKNAKVVHFLGRTKPWNYTYNPQTKSVNCDSQDPTVSHPEFLNLWWDTFTTNVLPLLQHHGLVKDASSYLMMEHVSGALSDLSFGEAPAAPQPSMSSEERKERWEQGQADYMGADSFDNIKRKLDTYLQ | binds |  |
| rabbit glycogenin-1, full length (natural protein, vector pOPTH; also called rbGYG1; full-length rbGYG1) MTDQAFVTLTTNDAYAKGALVLGSSLKQHRTSRRLAVLTTPQVSDTMRKALEIVFDEVITVDILDSGDSAHLTLMKRPELGVTLTKLHCWSLTQYSKCVFMDADTLVLANIDDLFEREELSAAPDPGWPDCFNSGVFVYQPSVETYNQLLHVASEQGSFDGGDQGLLNTFFNSWATTDIRKHLPFIYNLSSISIYSYLPAFKAFGANAKVVHFLGQTKPWNYTYDTKTKSVRSEGHDPTMTHPQFLNVWWDIFTTSVVPLLQQFGLVQDTCSYQHVEDVSGAVSHLSLGETPATTQPFVSSEERKERWEQGQADYMGADSFDNIKKKLDTYLQ | binds |  |

Reference: paper PMC9394474 (Viruses, 2022)
